What was measured:
Experiment in all cases: cell-based or functional assay
[1] = target: HIV-1 Env of isolate MGRM-D-002 (HIV-1)
[2] = target: HIV-1 Env of isolate MGRM-D-008 (HIV-1)
[3] = target: HIV-1 Env of isolate MGRM-C-023 (subtype C), on pseudovirus (HIV-1)
[4] = target: HIV-1 Env of pseudovirus isolate MGRM-Chronic-B-003 (clade B) (HIV-1)
[5] = target: HIV-1 Env of pseudovirus isolate MGRM-Chronic-B-001 (clade B) (HIV-1)
[6] = target: HIV-1 Env of pseudovirus MGRM-D-016 (HIV-1)
[7] = target: HIV-1 Env of pseudovirus MGRM-F1-006 (HIV-1)
[8] = target: HIV-1 Env of pseudovirus MGRM-D-022 (HIV-1)
[9] = target: HIV-1 Env of pseudovirus MGRM-D-018 (HIV-1)
[10] = target: HIV-1 envelope glycoprotein (Env) of isolate MGRM-AE-007 (HIV-1)
[11] = target: HIV-1 Env of pseudovirus MGRM-G-011 (HIV-1)
[12] = target: HIV-1 MGRM-AG-011 Env (pseudovirus) (HIV-1)
[13] = target: HIV-1 Env of pseudovirus MGRM-F1-010 (clade F) (HIV-1)
[14] = target: HIV-1 Env of pseudovirus MGRM-F1-014 (clade F) (HIV-1)
[15] = target: HIV-1 APV-17 envelope (Env) on pseudovirus (HIV-1)
[16] = target: HIV-1 Env of isolate MGRM-AG-001 (pseudovirus) (HIV-1)
[17] = target: HIV-1 Env of isolate CAAN.A2 (Acute), clade B (HIV-1)
[18] = target: HIV-1 92UG024 Env (HIV-1)
[19] = target: HIV-1 MGRM-G-001 Env (pseudovirus) (HIV-1)
[20] = target: HIV-1 94UG103 envelope (Env) on pseudovirus (HIV-1)
[21] = target: HIV-1 envelope glycoprotein (Env) of isolate MGRM-C-024 (HIV-1)
[22] = target: HIV-1 Env of isolate 92RW020 (clade A pseudovirus) (HIV-1)
[23] = target: HIV-1 envelope glycoprotein (Env) of isolate APV_6, on pseudovirus (HIV-1)
[24] = target: HIV-1 envelope glycoprotein (Env) of isolate 92UG031, subtype A (HIV-1)
[25] = target: HIV-1 envelope glycoprotein (Env) of isolate APV_13, on pseudovirus (HIV-1)
[26] = target: HIV-1 Env of isolate MGRM-F1-021 (pseudovirus) (HIV-1)
[27] = target: HIV-1 JR-CSF Env L416A (HIV-1 (isolate JR-CSF)) (UniProt P20871)
[28] = target: HIV-1 envelope glycoprotein (Env) of isolate MGRM-Chronic-B-018, on pseudovirus (HIV-1)
[29] = target: HIV-1 Env of isolate MGRM-F1-016 (pseudovirus) (HIV-1)
[30] = target: HIV-1 JR-CSF Env I307A (HIV-1 (isolate JR-CSF, clade B)) (UniProt P20871)
[31] = target: HIV-1 envelope glycoprotein (Env) of isolate MG RM-A-010, subtype A (HIV-1)
[32] = target: HIV-1 MGRM-AG-005 envelope protein (Env) on pseudovirus (HIV-1)
[33] = target: HIV-1 92UG005 Env (HIV-1)
[34] = target: HIV-1 Env of isolate MGRM-A-008 (subtype A) (HIV-1)
[35] = target: HIV-1 Env of pseudovirus isolate MGRM-C-027 (clade C) (HIV-1)
[36] = target: HIV-1 Env of pseudovirus isolate MGRM-C-014 (clade C) (HIV-1)
[37] = target: HIV-1 Env of isolate MGRM-D-029 (HIV-1)
[38] = target: HIV-1 Env of pseudovirus isolate MGRM-C-013 (clade C) (HIV-1)
[39] = target: HIV-1 Env of isolate MGRM-A-014 (subtype A) (HIV-1)
[40] = target: HIV-1 Env of isolate 98CN006 (pseudovirus) (HIV-1)
[41] = target: HIV-1 Env of isolate MGRM-AE-005 (subtype AE) (HIV-1)

Substance | IC50 (µg/mL), pseudovirus neutralization [1] | IC50 (µg/mL), pseudovirus neutralization [2] | IC50, single-round pseudovirus neutralization [3] | IC50, pseudovirus neutralization [4] | IC50, pseudovirus neutralization [5] | IC50, pseudovirus neutralization [6] | IC50, pseudovirus neutralization [7] | IC50, pseudovirus neutralization [8] | IC50, pseudovirus neutralization [9] | IC50 [10] | IC50 (µg/mL), pseudovirus neutralization [16] | IC50, pseudovirus neutralization [18] | IC50, pseudovirus neutralization [23] | IC50, pseudovirus neutralization [24] | IC50, pseudovirus neutralization [25] | IC50 (µg/mL), pseudovirus neutralization [26] | Fold IC50 increase relative to wild-type (pseudovirus neutralization) [27] | IC50, pseudovirus neutralization [28] | IC50 (µg/mL), pseudovirus neutralization [29] | IC50, pseudovirus neutralization [31] | other results
4980_N08 (PGT-143) (antibody) | > 50 µg/mL | 0.153 µg/mL | 0.148 µg/mL | 0.854 µg/mL | > 50 µg/mL |  |  |  |  |  |  |  |  |  |  |  |  |  |  |  | 
VRC01 (antibody) | 0.252 µg/mL | 0.854 µg/mL | 0.077 µg/mL | 0.1 µg/mL | 0.066 µg/mL | 0.452 µg/mL | 2.86 µg/mL | > 50 µg/mL | > 50 µg/mL | 0.835 µg/mL |  |  |  |  |  |  |  |  |  |  | 
4970_K22 (PGT-144) (antibody) | > 50 µg/mL | 9.85 µg/mL | 0.38 µg/mL | 7.41 µg/mL | > 50 µg/mL |  |  |  |  |  |  |  |  |  |  |  |  |  |  |  | 
PGT-143 (4980_N08) (antibody) |  |  |  |  |  | > 50 µg/mL | 12.3 µg/mL | > 50 µg/mL | > 50 µg/mL | 13.6 µg/mL |  |  |  |  |  |  |  |  |  |  | 
1496_C09 (PG9) (TCN-109) (antibody) |  |  |  |  |  |  |  |  |  |  | 17.1 µg/mL | 1.91 µg/mL |  |  |  |  |  |  |  |  | IC50 (µg/ml), pseudovirus neutralization [11]: 0.19 µg/mL; IC50 (µg/ml), pseudovirus neutralization [12]: 0.01 µg/mL; IC50 [13]: 0.03 µg/mL; IC50 [14]: 0.01 µg/mL; neutralization IC50 [15]: 26.4 µg/mL; IC50 (µg/ml), pseudovirus neutralization [17]: 5.67 µg/mL; IC50 (µg/ml), pseudovirus neutralization [19]: 0.16 µg/mL; neutralization IC50 [20]: 0.173 µg/mL; IC50 (µg/ml), pseudovirus neutralization [21]: 0.22 µg/mL; IC50 (µg/ml), pseudovirus neutralization [22]: 0.08 µg/mL
5145_B14 (PGT-127) (antibody) |  |  |  |  |  |  |  |  |  |  | > 50 µg/mL |  | 0.04 µg/mL | > 50 µg/mL | 0.026 µg/mL | > 50 µg/mL | 1 fold | 1.9 µg/mL | > 50 µg/mL | 0.017 µg/mL | Fold IC50 increase relative to wild-type [30]: 10.2 fold
5123_A06 (PGT-125) (antibody) |  |  |  |  |  |  |  |  |  |  | > 50 µg/mL | > 10 µg/mL | 0.021 µg/mL | > 50 µg/mL | 0.007 µg/mL | > 50 µg/mL | 0.8 fold | > 50 µg/mL | > 50 µg/mL | 0.004 µg/mL | IC50 (ug/mL), pseudovirus neutralization [32]: > 10 µg/mL; IC50, pseudovirus neutralization [33]: > 10 µg/mL; Fold IC50 increase relative to wild-type [30]: 5 fold
5141_B17 (PGT-126) (antibody) |  |  |  |  |  |  |  |  |  |  | > 50 µg/mL | > 10 µg/mL | 0.007 µg/mL | > 50 µg/mL | 0.012 µg/mL | > 50 µg/mL | 0.8 fold | 0.052 µg/mL | > 50 µg/mL | 0.002 µg/mL | IC50 (ug/mL), pseudovirus neutralization [32]: 1.35 µg/mL; IC50, pseudovirus neutralization [33]: 0.0181 µg/mL
PGT-144 (4970_K22) (antibody) |  |  |  |  |  | > 50 µg/mL | 20.6 µg/mL | > 50 µg/mL | > 50 µg/mL | > 50 µg/mL |  |  |  |  |  |  |  |  |  |  | 
5345_I01 (PGT-137) (antibody) |  |  |  |  |  |  |  |  |  |  |  |  |  |  |  |  |  |  |  |  | IC50, pseudovirus neutralization [34]: > 50 µg/mL; IC50, pseudovirus neutralization [35]: > 50 µg/mL; IC50, pseudovirus neutralization [36]: > 50 µg/mL; IC50 (µg/mL), pseudovirus neutralization [37]: > 50 µg/mL; IC50, pseudovirus neutralization [38]: > 50 µg/mL; IC50, pseudovirus neutralization [39]: 18.6 µg/mL; IC50 (µg/mL), pseudovirus neutralization [40]: 1.22 µg/mL; IC50, pseudovirus neutralization [41]: > 50 µg/mL

— patent publication US20240132578A1
